Results as given in publication doi:10.1101/2025.03.20.644318, “Functional Spectrum of USP7 Pathogenic Variants in Hao-Fountain Syndrome: Insights into the Enzyme’s Activity, Stability, and Allosteric Modulation” (bioRxiv, 2025).
Residue numbers refer to the chain shown, from its start. In names and notes the source's numbering stands. One block for each binder: values may come before it.

Legend:
[1] = target: T1, ubiquitin (UniProt P0CG48 1-76); assay: NMR titration; unlabeled ubiquitin added stepwise to ~250 uM 15N-labeled USP7 catalytic domain up to 1:4 molar excess; 2D 1H-15N TROSY, six titration points, 800 MHz, 30 °C; 20 mM Tris pH 7.5, 100 mM NaCl, 2 mM DTT, 10% D2O; KD from nonlinear fit of total chemical shift changes against ubiquitin concentration; conditions: both partners purified
T1 construct: also called unlabeled ubiquitin

[2] = target: T2, ubiquitin (UniProt P0CG48 1-76); assay: NMR titration; unlabeled ubiquitin added to ~250 uM 15N-labeled USP7 catalytic domain up to 1:4 molar excess of ubiquitin; 2D 1H-15N TROSY, six titration points; KD from fit of total chemical shift changes; 30°C; 20 mM Tris pH 7.5, 100 mM NaCl, 2 mM DTT, 10% D2O; conditions: both partners purified
T2 construct: neither species nor source of the unlabeled ubiquitin is stated; also called unlabeled ubiquitin

B2: E345K USP7 catalytic domain (residues 207-560) (domain or fragment, human, UniProt Q93009 207-560, looked up)
chain: SKKHTGYVGLKNQGATCYMNSLLQTLFFTNQLRKAVYMMPTEGDDSSKSVPLALQRVFYELQHSDKPVGTKKLTKSFGWETLDSFMQHDVQELCRVLLDNVENKMKGTCVEGTIPKLFRGKMVSYIQCKEVDYRSDRRKDYYDIQLSIKGKKNIFESFVDYVAVEQLDGDNKYDAGEHGLQEAEKGVKFLTLPPVLHLQLMRFMYDPQTDQNIKINDRFEFPEQLPLDEFLQKTDPKDPANYILHAVLVHSGDNHGGHYVVYLNPKGDGKWCKFDDDVVSRCTKEEAIEHNYGGHDDDLSVRHCTNAYMLVYIRESKLSEVLQAVTDHDIPQQLVERLQEEKRIEAQKRKERQE
notes: USP7 catalytic domain, residues 207-560, with the Hao-Fountain syndrome patient variant E345K; 15N-labelled in the NMR titrations; source: E. coli BL21 (DE3), purified (TALON cobalt resin, thrombin, SEC); M9 minimal media with 15NH4Cl for NMR, LB for enzyme assays; not shown: His6, N-terminal, cleaved
Kd [2]: ~600 µM

B3: USP7 catalytic domain (residues 207-560) L373F (domain or fragment, human, UniProt Q93009 207-560, looked up)
chain: B2 chain with K139E, L167F
modifications: 15N-labeled
notes: patient-derived variant; also called 15N USP7 (L373F); L373F USP7 catalytic domain; source: E. coli BL21 (DE3), M9 minimal media with 15NH4Cl, purified (TALON cobalt resin, thrombin cleavage, SEC); not shown: His6, N-terminal, cleaved
Kd [1]: 108 ± 29.8 µM

B4: USP7 catalytic domain (residues 207-560) M225I (domain or fragment, human, UniProt Q93009 207-560, looked up)
chain: B2 chain with M19I, K139E
modifications: 15N-labeled
notes: patient-derived variant; also called 15N USP7 (M225I); M225I USP7 catalytic domain; source: E. coli BL21 (DE3), M9 minimal media with 15NH4Cl, purified (TALON cobalt resin, thrombin cleavage, SEC); not shown: His6, N-terminal, cleaved
Kd [1]: 91.6 ± 5.2 µM

B5: USP7 catalytic domain (residues 207-560) G392D (domain or fragment, human, UniProt Q93009 207-560, looked up)
chain: B2 chain with K139E, G186D
modifications: 15N-labeled
notes: patient-derived variant; also called 15N USP7 (G392D); G392D USP7 catalytic domain; source: E. coli BL21 (DE3), M9 minimal media with 15NH4Cl, purified (TALON cobalt resin, thrombin cleavage, SEC); not shown: His6, N-terminal, cleaved
Kd [1]: 33.6 ± 6.6 µM

B6: USP7 catalytic domain (residues 207-560) K420E (domain or fragment, human, UniProt Q93009 207-560, looked up)
chain: B2 chain with K139E, K214E
modifications: 15N-labeled
notes: patient-derived variant; also called 15N USP7 (K420E); K420E USP7 catalytic domain; source: E. coli BL21 (DE3), M9 minimal media with 15NH4Cl, purified (TALON cobalt resin, thrombin cleavage, SEC); not shown: His6, N-terminal, cleaved
Kd [1]: 114 ± 8.8 µM

B8: USP7 catalytic domain (residues 207-560) E345K (domain or fragment, human, UniProt Q93009 207-560, looked up)
chain: B2 chain
modifications: 15N-labeled
notes: patient-derived variant; also called 15N USP7 (E345K); E345K USP7 catalytic domain; source: E. coli BL21 (DE3), M9 minimal media with 15NH4Cl, purified (TALON cobalt resin, thrombin cleavage, SEC); not shown: His6, N-terminal, cleaved
Kd [1]: 621 ± 56.6 µM

B9: USP7 catalytic domain (residues 207-560) G392A (domain or fragment, human, UniProt Q93009 207-560, looked up)
chain: B2 chain with K139E, G186A
modifications: 15N-labeled
notes: patient-derived variant; also called 15N USP7 (G392A); G392A USP7 catalytic domain; source: E. coli BL21 (DE3), M9 minimal media with 15NH4Cl, purified (TALON cobalt resin, thrombin cleavage, SEC); not shown: His6, N-terminal, cleaved
Kd [1]: 77.2 ± 4.7 µM

B11: USP7 catalytic domain (residues 207-560) N418S (domain or fragment, human, UniProt Q93009 207-560, looked up)
chain: B2 chain with K139E, N212S
modifications: 15N-labeled
notes: patient-derived variant; also called 15N USP7 (N418S); N418S USP7 catalytic domain; source: E. coli BL21 (DE3), M9 minimal media with 15NH4Cl, purified (TALON cobalt resin, thrombin cleavage, SEC); not shown: His6, N-terminal, cleaved
Kd [1]: 73.4 ± 6.4 µM

Results, then the binder that gave them:

Kd [1]: 160 ± 24.2 µM
B1: USP7 catalytic domain (residues 207-560), wild type (domain or fragment, human, UniProt Q93009 207-560, looked up)
chain: B2 chain with K139E
modifications: 15N-labeled
notes: also called WT; 15N USP7 (WT); source: E. coli BL21 (DE3), M9 minimal media with 15NH4Cl, purified (TALON cobalt resin, thrombin cleavage, SEC); not shown: His6, N-terminal, cleaved

Kd [1]: 171 ± 22.6 µM
B7: USP7 catalytic domain (residues 207-560) V485G (domain or fragment, human, UniProt Q93009 207-560, looked up)
chain: B2 chain with K139E, V279G
modifications: 15N-labeled
notes: patient-derived variant; also called 15N USP7 (V485G); V485G USP7 catalytic domain; source: E. coli BL21 (DE3), M9 minimal media with 15NH4Cl, purified (TALON cobalt resin, thrombin cleavage, SEC); not shown: His6, N-terminal, cleaved

Kd [1]: 82.5 ± 9.9 µM
B10: USP7 catalytic domain (residues 207-560) P273H (domain or fragment, human, UniProt Q93009 207-560, looked up)
chain: B2 chain with P67H, K139E
modifications: 15N-labeled
notes: patient-derived variant; also called 15N USP7 (P273H); P273H USP7 catalytic domain; source: E. coli BL21 (DE3), M9 minimal media with 15NH4Cl, purified (TALON cobalt resin, thrombin cleavage, SEC); not shown: His6, N-terminal, cleaved

Kd [1]: 26 ± 7.9 µM
B12: USP7 catalytic domain (residues 207-560) Y331H (domain or fragment, human, UniProt Q93009 207-560, looked up)
chain: B2 chain with Y125H, K139E
modifications: 15N-labeled
notes: patient-derived variant; also called 15N USP7 (Y331H); Y331H USP7 catalytic domain; source: E. coli BL21 (DE3), M9 minimal media with 15NH4Cl, purified (TALON cobalt resin, thrombin cleavage, SEC); not shown: His6, N-terminal, cleaved
